± gives the uncertainty stated by the source.

A short description of this data set: amyloid nucleation score (Sup35N fusion, yeast selection) (log enrichment); library NNK2; higher = more nucleation; inactive = no reads after selection. The gist of the method:
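Psi-negative yeast expressed Sup35N fused to peptides of 20 random codons. They were induced 24 hours with 100 μM copper sulfate, grown 7 days at 30°C without adenine and uracil, and their plasmid inserts from input and output were Illumina-sequenced. The nucleation score is the DiMSum log enrichment of output over input reads, centred on the mode score of non-aggregating sequences. Sequences with under 100 input reads were excluded.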
The substance FNKNDNYYSAR registered an amyloid nucleation score of -0.753 ± 0.78.

With FNLSGWLMSSIRNNFLVPG, the amyloid nucleation score was -1.01 ± 0.61.

Consider FNVFFAS, for which the amyloid nucleation score came to 5.97 ± 0.055.

FNVSVCCG registered an amyloid nucleation score of 0.607 ± 0.65.

Substance FPCAMYTEWHVAVTVSICYG showed an amyloid nucleation score of -0.36 ± 0.76.

FPFKILSVKPH returned an amyloid nucleation score of 3.45 ± 0.14.

With FPGPRRLSWFPGVQRVSMMI, the amyloid nucleation score is -0.243 ± 0.79.

On to FPHLFKSKNPSRNMNSTSPG, for which the amyloid nucleation score result was “inactive”.

Substance FPLIDTYLEFMEPNGYWNSS registered an amyloid nucleation score of 0.516 ± 0.81.

For FPLWSCSHTIINML, the amyloid nucleation score came out at 5.858 ± 0.037.

As for FPTFVAMW, the amyloid nucleation score came to 0.35 ± 0.23.

On to FQHNVAIKRWRRLADSLYSV, for which the amyloid nucleation score came to 0.723 ± 0.57.

Substance FQLYT yielded an amyloid nucleation score of 0.238 ± 0.29.

FRCHYFNWNDFALAVSFSKE returned an amyloid nucleation score of -0.33 ± 0.38.

Substance FRDQGIFIHLWS returned an amyloid nucleation score of 0.781 ± 0.44.

Take FRFANRVTIKSFLGV: the amyloid nucleation score result was “inactive”.

For FRFFCHISMNLGTLWRLDCL, the amyloid nucleation score was -0.405 ± 0.44.

As for FRHCTFRLFHAHK, the amyloid nucleation score was -0.378 ± 1.

As to FRLFVKNKGRELICDLWVCT, the amyloid nucleation score is -0.024 ± 1.

With FRMGY, the amyloid nucleation score result was “inactive”.

Take FRNPHYASHGQYHYRFNMRY: the amyloid nucleation score entry was “inactive”.

FRQFS had an amyloid nucleation score of 0.285 ± 1.

FRQRDKRVTEMTPAERGGQ: the amyloid nucleation score came to 2.79 ± 0.091.

Substance FRVKLTLRFLNITECCLDYL had an amyloid nucleation score of 3.29 ± 0.095.

In turn, FRVVRFVQTGSTFSIARFIK showed an amyloid nucleation score of -0.83 ± 0.39.

The substance FSACFGCFVLAKSNHY returned an amyloid nucleation score of 0.955 ± 0.25.

FSAVHAHQQNLLVVFYTCCA: the amyloid nucleation score turned out to be 3.97 ± 0.08.

Substance FSCEACIFLLYSYMFMNL had an amyloid nucleation score of -0.522 ± 0.55.

The substance FSDDLVRDV displayed an amyloid nucleation score of -0.505 ± 0.28.

In the case of FSDNTVNTQQVEGIYQIDPN, the amyloid nucleation score was -0.705 ± 0.46.

FSGKMN gave an amyloid nucleation score of 0.301 ± 0.57.

Consider FSLCDILVLVNTNAGWAAFD, for which the amyloid nucleation score is -0.352 ± 1.

Take FSLEMTLFWPVFRLCPISSL: the amyloid nucleation score came to 0.606 ± 0.66.

FSLHKCNVRLGISNGT had an amyloid nucleation score of -0.276 ± 0.48.

The substance FSLPFC displayed an amyloid nucleation score of 0.246 ± 0.49.

Consider FSLQCPFSERKIYRRLCSPS, for which the amyloid nucleation score entry was “inactive”.

Regarding FSMLF, the amyloid nucleation score was -0.462 ± 0.56.

Consider FSNTYHFCISNYMWLNEVLM, for which the amyloid nucleation score is 1.36 ± 0.19.

With FSRWVVVLVVQLWSLALRSN, the amyloid nucleation score worked out at 0.369 ± 0.65.

The substance FSSSNSIFKFVLNVRCTGVK had an amyloid nucleation score of 5.045 ± 0.049.

In turn, FSSSYCNVYYWFYMFFHWG yielded an amyloid nucleation score of 1.25 ± 0.14.

In the case of FSTCVVSGSSLYCGGLTLVH, the amyloid nucleation score result was “inactive”.

For FSVFTD, the amyloid nucleation score is -0.678 ± 0.61.

For FSVRLISFRSSLLLMSQDLL, the amyloid nucleation score came out at 0.138 ± 1.1.

Regarding FSWASAQLIHSV, the amyloid nucleation score came to 0.59 ± 0.64.

Regarding FSYNMACLNKLLSLSLYRFS, the amyloid nucleation score is -1.29 ± 0.44.

Substance FTAMNIGNACMESQALPWNL displayed an amyloid nucleation score of 0.198 ± 0.65.

In the case of FTCDSSLYAES, the amyloid nucleation score is -0.485 ± 0.41.

As for FTCFFLVLRVKSLLMVSAVG, the amyloid nucleation score came out at 6.34 ± 0.079.

As to FTDRDLGNLTYDDRFDICNY, the amyloid nucleation score was -1.75 ± 0.76.

Substance FTEFPNFNDMSDRVV displayed an amyloid nucleation score of -0.92 ± 0.64.

The substance FTESCQCS showed an amyloid nucleation score of -0.08 ± 0.31.

In turn, FTGRETFQRKRFAAVLSSSV gave an amyloid nucleation score of -0.062 ± 0.65.

Regarding FTIIGAAIKRVVVLTVSPYY, the amyloid nucleation score entry was “inactive”.

Take FTNCEYNVDISCVSGLSYSI: the amyloid nucleation score entry was “inactive”.

For FTQTSTVPSKETALALNLMR, the amyloid nucleation score came out at 0.688 ± 0.57.

With FTRSWFLYTT, the amyloid nucleation score turned out to be 3.85 ± 0.095.

FVCPFVVCYAGIGGRGGYVM returned an amyloid nucleation score of 0.173 ± 1.1.

The substance FVDWVMCIVMYVRLR registered an amyloid nucleation score of -0.87 ± 0.41.

As to FVFIYYIVLQHATANHSMQA, the amyloid nucleation score is 4.921 ± 0.044.

For the substance FVGCVNLRLCSSITTAWSSL, the amyloid nucleation score was 8.346 ± 0.046.

Regarding FVGDTIQVVIWLMIIYFWFF, the amyloid nucleation score stood at 0.959 ± 0.74.

On to FVIVFVRRSNTFLAPQKVWG, for which the amyloid nucleation score is 1.6 ± 0.14.

On to FVLNHLAV, for which the amyloid nucleation score is -0.548 ± 0.54.

As for FVLRIDNC, the amyloid nucleation score turned out to be 0.735 ± 0.39.

For FVLSDQK, the amyloid nucleation score was found to be 0.347 ± 0.21.

Regarding FVQSVGNMVSNSGRAGGMPG, the amyloid nucleation score came out at 0.444 ± 0.31.

Consider FVSFSSLTKTLWYRRRRMVR, for which the amyloid nucleation score is -1.06 ± 1.1.

Substance FVVGAES showed an amyloid nucleation score of -0.821 ± 0.48.

For FVVIWAMDIDVLWSMGGKID, the amyloid nucleation score amounted to 5.46 ± 0.061.

For FVYNQWSYRLRYLTVAIRD, the amyloid nucleation score is -0.111 ± 0.56.

FWGGDLRACSCGQGIEFAGR showed an amyloid nucleation score of 3.7 ± 0.14.

For the substance FWGIVKYMWIFSTTYLNVFL, the amyloid nucleation score is 3.22 ± 0.11.

In the case of FWHIEMCENSTYHVSLSTGC, the amyloid nucleation score was 4.394 ± 0.04.

In the case of FWLLSTCGV, the amyloid nucleation score was -0.408 ± 0.29.

Regarding FWLVL, the amyloid nucleation score is -1.47 ± 0.73.

Regarding FWRDLPAQWTRPKAENLVLK, the amyloid nucleation score was determined as 1.23 ± 0.32.

Take FWRTP: the amyloid nucleation score was -0.539 ± 0.5.

Consider FWYENP, for which the amyloid nucleation score was determined as 2.14 ± 0.16.

With FWYFPDIIWG, the amyloid nucleation score result is “inactive”.

FYASLHNSFFSVLWTDMTFS: the amyloid nucleation score is -0.487 ± 1.1.

Substance FYCVNV displayed an amyloid nucleation score of -0.383 ± 0.64.

For the substance FYFCF, the amyloid nucleation score is 7.59 ± 0.03.

For FYFEMVTSD, the amyloid nucleation score entry was “inactive”.

Consider FYFHEACPSRLHHTKSAIGK, for which the amyloid nucleation score is -0.839 ± 0.78.

Take FYGGDA: the amyloid nucleation score worked out at 0.005 ± 0.39.

As for FYHISEVLVVPLRLELSVQL, the amyloid nucleation score amounted to 5.68 ± 0.07.

As for FYIYGNSCSPYIML, the amyloid nucleation score is -0.681 ± 1.

On to FYLNKDNLWNSNLGGSAHKC, for which the amyloid nucleation score was -2.38 ± 1.1.

Substance FYLRNSVMCTGPDLGNSTYM came in with an amyloid nucleation score of -1.15 ± 1.1.

Substance FYLSLLYGRSRQIGLLIYFQ registered an amyloid nucleation score of 0.974 ± 0.15.

Take FYLYFIYGSVCSLSRFNPIR: the amyloid nucleation score is 1.53 ± 0.1.

On to FYLYNFMCEVLYMESRRVMS, for which the amyloid nucleation score result is “inactive”.

On to FYMTYWISPMVIQWVFTDYA, for which the amyloid nucleation score stood at 5.571 ± 0.034.

Consider FYMYAFNYYSFY, for which the amyloid nucleation score was found to be 2.91 ± 0.086.

FYSAVYMLFIVMWFGYSLIN: the amyloid nucleation score entry is “inactive”.

For FYSELKLNGMH, the amyloid nucleation score was -2.04 ± 0.62.

FYWVLMNYGQLCCWFW displayed an amyloid nucleation score of 1.79 ± 0.2.

In turn, GAFSYEMTRLKALGFWPL gave an amyloid nucleation score of 5.87 ± 0.045.

In turn, GAIIGIAGVPKGLSNSHSDG showed an amyloid nucleation score of -0.606 ± 1.1.

In the case of GAPSHFCEFCSYSAAKEEYE, the amyloid nucleation score entry was “inactive”.

Turning to GARYTIWECF, the amyloid nucleation score entry was “inactive”.

The substance GCCWEKSASRSAETYWSGRA gave an amyloid nucleation score of 3.06 ± 0.14.

On to GCGGAHY, for which the amyloid nucleation score is -0.633 ± 0.29.

With GCHICHRWIKSVYRSNHALM, the amyloid nucleation score is 0.291 ± 0.33.

These data come from the supplement of paper PMC12042874.
